Source: the nanobody polyreactivity screen of Harvey et al. (2022)

Assay: yeast display, Sf9 membrane polyspecificity reagent, FACS + sequencing; frameworks hold sequencing errors
How it was run: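 A nanobody's polyreactivity label depends on the gate it was sorted from. Yeast display cells were stained with 10% biotinylated, detergent-solubilized Sf9 membrane reagent for 1 hour at 4 °C, enriched on streptavidin microbeads and sorted by FACS. The low and high (top ~1%) gates were set on anti-HA fluorescence for expression and streptavidin fluorescence for reagent binding.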

Row | Sequence | polyreactivity (PSR sort gate)
1 | QVQLVESGGGLVQAGGSLRLSCASSGRIFYYYAMGWYRQAPGKEREFVARNRSSGGSTYADSVKGRFTISRDNAKNTVYLQMNSLKPEDTAVYYCARDGYTAVEYDYWGQGTQVTVSS | low polyreactivity
2 | QVQLVESGGGLVQAGGSLRLSCAASGIIFFYNAMGWYRQAPGKERELVAAIRRGGRTNYADSVKGRFTISRDNAKNTVYLQMNSLKPEDTAVYYCNKDFYPGDYWGQGTQVTVSS | low polyreactivity
3 | QDQLVESGGGLVQAGGSLRLSCDASGSIFRYYTMGWYRQAHGQERELVARISYSGGRTYYAVSVKGRFTISRDNAKNTVYLQMNSLKPEDTAVYYCNTVTRWVGKLEYWGHGTQVTVSS | high polyreactivity
4 | QVQLVESGGGLVPAGGSLRLSWAASGRTFTRNAMGWYRQAPGKERELVAVITSSGRTNYADSVKGRVTISRDNAKNTVYLQMNSLKPEDTAVYYCNKVSARYPYPLYDYWGQGTQVTVSS | high polyreactivity
5 | QVQLVESGGGLVQAGGSLRLSCAASGSIFDIYAMGWYRQAPGKERELVAAISWIGDSTSYAESVKGRFTISRDNAKNTVYLQMNSLKPEDTAVYYCNAVVQGLADFQKYDYWGQGTQVTVSS | low polyreactivity
6 | QVQLVESGGGLVHAGGRLRLSCAASGRTFGFYTMGWYRQPPGKERELVAGISRGGSTTYADSVKGRFTISRDNAKNTVYLQMNSLKPEDTAVYYCNADRSHYWLPYGVRFDYWGQGSQVTVSS | low polyreactivity
7 | QDQLVESGGGLVQAGGSLGLSCAASGIIFYGYAMRWYRPAPGKERELVAAISRSGGSTYYADSVKGRFTISRDNAMNTVYLQMNSLKPEDTAVYYCAASGVTYDYWGQGTQVTVSS | high polyreactivity
8 | QVHLVESGGGLLQAGGSLRLSFAASGTFYYYAMGWNRQAPGKERELVATISWDSASTYYADSVKGRFTISRDNAKNTVYLQMNSLKPEDTGVYYCAAGGSSSWAFNYWGQGTQVTVSS | low polyreactivity
9 | QVQLVESGGGLVQAGGSLRLSIDASGRIFYPYVMGWYRQAPGQERELVAAISDSTGSTYYADSVKGRFTISRDNAKITVYLEMNSQKPEDTAVFYCAAGWFYATYWRFYYCGQGTQVTVSS | low polyreactivity
10 | QVQLVESGGGLVQAGGTLRLSCAASGYTFGVYFMGWYRHAPGKERELVAAISGSTYYADSVKGRFTISRDNAKNTVYLQMNSLKQEDTAVYYCAAESYFFSPRTREKFDYWGQGTQVTVSS | low polyreactivity
11 | QVQLVESGGGLVQAGGSLRLSCAASGIIFRDNDMGWYRQAPGKERELVASISDSGGSTYYADSVKGRFTISRDNAKNTVYLQMNSLKPEDTAVYYCAAPYLSLYWYDYWGQGTQVTVSS | low polyreactivity
12 | QVQLVESGGGLVQAGGSLRLSCAASGRIFNYNAMGWYRQAPGKERELVAAITSSGDSTNYADSVKGRFTISRDNAKNTVYLQMNSLKPEDTAVYYCNASSPYDYDWGQGTQVTVSS | low polyreactivity
13 | QVQLVESGGGLVQAGGSLRLSCAPSGRISFRYAMGWYRQAPGKERELVAAINRGGITNYADSVKGRFTISRDNAKNTVYLQMNSLKPEDTADYYCAAEGFYDYYNGFDYSGQGTQVTVSS | high polyreactivity
14 | QVQLVVSGGGLVQAGGSLSLSWAASGRIFSSYAMGWYRQAPGKERELDAAIDRTDSTYYADSVKGRFTISRDNAKNTVYLQMNSLIPEDTAVYYCAVLTYRYQSWGNYYLEYDYWGQGTEVTVSS | low polyreactivity
15 | QVQLVESGGGLVQAGGSLRLSCAASGLTFYTYAMGWYRQAPGKERELVAAISSGGSTNYADSVKGRFTISRDNAKNTVYLQMNSLKPEDTAVYYCASGGQYYIIRYDYWGQGTQVTVSS | low polyreactivity
16 | QVQLVESGGGLVQAGGSLRLSSAASGRTFSRYVMGWSRQAPGKERELVATISRSGGSTFYADSVKGRFTISRDNAKNTVYLQMNSLKPEDTAVYYCNKKVQGYQVTYGYWGQGTQVTVSS | high polyreactivity
17 | QVQLVESGGGLVQAGGSLRLSCAASGFTFVNHAMGWYRQAPGKERELVAAISGGRTTNYADSVKGRFTISRDNAKNTVYLQMNSLKPEDTAVYYCAARRYFGLWYFWYDYWGQGTQVTVSS | high polyreactivity
